Experiment [1] concerns the target His.MBP-P3a^P18L fusion protein (Brassica yellows virus (BrYV-A)). Briefly: SDS-PAGE and western blot (dimer band under denaturing conditions); E. coli Rosetta (DE3) induced with 0.1 mM IPTG at 18 °C for 20 h; 12.5% SDS-PAGE; anti-MBP monoclonal antibody.
Experiment [2] has as its target P3a^P18L-RFP (Brassica yellows virus (BrYV-A)). Description: SDS-PAGE and western blot (dimer band under denaturing conditions); total protein of agroinfiltrated N. benthamiana leaves in 2x SDS-PAGE buffer, 100 °C 10 min, 12.5% SDS-PAGE; antisera to GFP or RFP.
Experiment [3] addresses BrYV P3a^P18L, 3xFlag- and GFP-tagged copies (Brassica yellows virus (BrYV-A)). Described as above.

As to “His.MBP-P3a^P18L fusion protein (from UniProt A0A897TIH8 1-45) (natural protein)”, the stoichiometry N in experiment [1] is 2.

Substance “P3a^P18L-RFP (from UniProt A0A897TIH8 1-45) (natural protein)” came in with a stoichiometry N in experiment [2] of 2.

In turn, “BrYV P3a^P18L, 3xFlag- and GFP-tagged copies (from UniProt A0A897TIH8 1-45) (natural protein)” yielded a stoichiometry N in experiment [3] of 2.

Source of the values: publication PMC5893644.
